± gives the uncertainty stated by the source.

This series in a line: amyloid nucleation score (Sup35N fusion, yeast selection) (log enrichment); library NNK3; higher = more nucleation; inactive = no reads after selection. The gist of the method: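 Psi-negative yeast expressed Sup35N fused to peptides of 20 random codons. They were induced 24 hours with 100 μM copper sulfate, grown 7 days at 30°C without adenine and uracil, and their plasmid inserts from input and output were Illumina-sequenced. The nucleation score is the DiMSum log enrichment of output over input reads, centred on the mode score of non-aggregating sequences. Sequences with under 100 input reads were excluded.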
With HNFYKGFDYHLECMGADTGE, the amyloid nucleation score result was “inactive”.
For WETFPHSFINVLIWDSFELV, the amyloid nucleation score result is “inactive”.
Regarding DVSLVGSVMRIELLEMCVSR, the amyloid nucleation score result was “inactive”.
Substance TNLACWVTFCPNCMMLDYLG had an amyloid nucleation score of 2.21 ± 0.064.
The result for WFFLGFVLIIKWLGLHQYSF reads “inactive”.
In the case of MIFRAQDSYGPLYT, the amyloid nucleation score entry was “inactive”.
For the substance EVPGHSGQYSGVDYGYVWLA, the amyloid nucleation score result was “inactive”.
Turning to GYNNVESGNKYMLEDDFAFS, the amyloid nucleation score entry was “inactive”.
Regarding RTGPTRALRVLHLDAMDALV, the amyloid nucleation score result is “inactive”.
With ISTDDKIIGST the entry was “inactive”; with CFLSQLNTSDACVCLRFGWG, “inactive”.
The result for ADVGGD reads “inactive”.
The result for NSNGCVQGQRFSWPWVGRLA reads “inactive”; that for ILQTRKRVNVLNIVIWQIAF, 1.09 ± 0.18.
Turning to ASCSVVEKISFTDPGIQWIR, the amyloid nucleation score is -0.032 ± 1.1.
In the case of CLYSSCALGIARDWVVLL, the amyloid nucleation score result is “inactive”.
As to AVIIDIHGINPMG, the amyloid nucleation score entry is “inactive”.
SEMHRERDTMCKVLPDNDKN: the amyloid nucleation score result is “inactive”.
The result for CYYRCDCLCMTWWGHRVIVV reads “inactive”; that for DNSGVSVQLRKVSESGSA, “inactive”.
The substance VCGIYYVFLAGWEHKSRSKE returned an amyloid nucleation score of 1.86 ± 0.089.
As to IGITLFENHKFGLGLANVPG, the amyloid nucleation score entry was “inactive”.
As for LFGYSNSRRHMIGMQSY, the amyloid nucleation score result was “inactive”.
As for INTVLLGYS, the amyloid nucleation score entry is “inactive”.
On to YGSRW, for which the amyloid nucleation score entry is “inactive”.
Consider RPMKLRCASGWNVDTQFFDT, for which the amyloid nucleation score entry was “inactive”.
In turn, SSWYSRAPWLRVEMRRKWYM returned an amyloid nucleation score of 0.025 ± 0.61.
The substance LVAFATWYNGWWVPRENEFR showed an amyloid nucleation score of 0.033 ± 0.47.
On to CDHCRDKCMANRMSSRSLRW, for which the amyloid nucleation score result is “inactive”.
With HLHVVHKIAS the figure was -0.471 ± 0.82; with WLHSGYGSNLPKATMRYCPN, “inactive”; with SLDSYDTDLKGVCCQVFCIK, 3.24 ± 0.062.
On to VHLSWFSIIVRVDEGDWARR, for which the amyloid nucleation score was -0.839 ± 1.5.
With SAPRAEVSNRIK the entry was “inactive”; with WPLTCCDFSPSDSAIGRM, “inactive”.
As to FLCVRSFRFVCVLFFNDIT, the amyloid nucleation score result was “inactive”.
With FLVNPVCSMVSSYCSFPSPK the figure was 2.52 ± 0.062; with IVRRGLKMCG, “inactive”.
In the case of LFRVSWMLGNKIDISKSIYR, the amyloid nucleation score result was “inactive”.
As for TPFTFGCHRLLQHKYCNSDV, the amyloid nucleation score entry was “inactive”.
The result for SGKDIALMVHCVTVMWDQAY reads “inactive”; that for SVYLTHSLFLRQLVGYLVHL, “inactive”; that for FMSSSPDSYCEKGKRQ, “inactive”.
LVVCTSAFIGMTDY: the amyloid nucleation score was -0.532 ± 0.8.
YVFKMWLGPSSLIEFDLKRH: the amyloid nucleation score came out at 2.88 ± 0.062.
Substance YPMLLALYTGSVFNFNRCRL gave an amyloid nucleation score of 2.07 ± 0.089.
For the substance LSSGNGSFVRYI, the amyloid nucleation score result is “inactive”.
Take VECSIVLCII: the amyloid nucleation score was determined as 2.26 ± 0.051.
The result for YYQLKSHVVRDGHVWTICGS reads “inactive”; that for VITVSVTHNNANFFQMTDGM, 2.88 ± 0.055; that for RYRLSCWWIRLGGNRLAWY, “inactive”.
As to YLSIGSVSMSAGASANDAQ, the amyloid nucleation score entry was “inactive”.
The result for SDYYMENISFCENMRDILFS reads “inactive”.
Regarding LSDGSHLSECYGFT, the amyloid nucleation score result was “inactive”.
Take FILSVCYARRDLTLKRTPSR: the amyloid nucleation score result was “inactive”.
Substance YRSTLEKVSVGMMENICVGI had an amyloid nucleation score of 0.028 ± 0.2.
Take FSSYTWNPL: the amyloid nucleation score result is “inactive”.
Regarding NWGRKCLFSSWCLLYVDNGT, the amyloid nucleation score was 0.555 ± 0.2.
For the substance LSDVDPEFLFLLLFFP, the amyloid nucleation score entry is “inactive”.
As for QFSNNSLKVRFMCVLYVVDR, the amyloid nucleation score is -0.039 ± 0.37.
Regarding SNAHMCVRRTAWKNI, the amyloid nucleation score entry is “inactive”.
Regarding YIYWQRTTSRVLERSVILNV, the amyloid nucleation score entry was “inactive”.
YLMYLGSFSAMLREKWQL: the amyloid nucleation score entry was “inactive”.
Turning to FSLWEHPVKIMCLFVYVACG, the amyloid nucleation score result was “inactive”.
For TQLNTFYSVITSSFMIDFC, the amyloid nucleation score result is “inactive”.
Consider TKVFVLHSYDCTIKTSGFNS, for which the amyloid nucleation score result is “inactive”.
For DDICIEKARDVVSMSPRSFR, the amyloid nucleation score entry was “inactive”.
Turning to DGNKNYDVKFIRLVTNI, the amyloid nucleation score entry was “inactive”.
For the substance RLFSRDLTSFCFLFFNFRWK, the amyloid nucleation score result was “inactive”.
As for RVVCGNTGNVAIKKGLINMC, the amyloid nucleation score entry was “inactive”.
AVENSQFW gave an amyloid nucleation score of 0.204 ± 0.38.
Regarding WPGNWSQFNQCWCRETTCYV, the amyloid nucleation score entry was “inactive”.
With ILSYARTFVLIDNKVGMLR, the amyloid nucleation score entry is “inactive”.
On to FWKKLWNSSF, for which the amyloid nucleation score entry was “inactive”.
In the case of CTGCTFRYEKKDYNLGCLCK, the amyloid nucleation score result is “inactive”.
With FIWVFCD the entry was “inactive”; with YFISRCIWLVKSYREIELRW, “inactive”; with RDISGMLYCYEGFYVF, “inactive”.
As to FGVIRHERMEMWRHRSNRCV, the amyloid nucleation score entry was “inactive”.
For SLKELRVSLSSLCACDSNNN, the amyloid nucleation score result is “inactive”.
As for WDYGKWE, the amyloid nucleation score result is “inactive”.
Turning to THEVISSFGMVFRNSNFCNS, the amyloid nucleation score entry is “inactive”.
With NFGQKQNIWAWTVYCPDPCE the entry was “inactive”; with LNWVKTYVAYLFFYSISKRC, “inactive”; with CIWHLHLLFLEGVYV, “inactive”.
On to SQFTIVVTAVLVT, for which the amyloid nucleation score result is “inactive”.
Consider IYCPNIILLVKRHGVFQMFL, for which the amyloid nucleation score stood at 2.3 ± 0.072.
As for NGFSFRLGWH, the amyloid nucleation score stood at 1.55 ± 0.1.
As for MASFSRHVCMYGTLNLSGNA, the amyloid nucleation score result is “inactive”.
In turn, LTDRQVCNLIWNNAYGFLC gave an amyloid nucleation score of 0.257 ± 0.52.
For the substance FPLESG, the amyloid nucleation score entry is “inactive”.
Take TFPLAECRWIVWRLDDSLM: the amyloid nucleation score result is “inactive”.
The result for TLGVRIHCGEFNLYDHSRVK reads 0.875 ± 0.26; that for HSIIRVSFLDMVCAGNSIVR, -0.504 ± 1.9.
The result for LNKHSAYGTDLVYSRLKFVL reads “inactive”; that for SLCFRSIINIGFFK, 2.15 ± 0.056.
Regarding IDTVNFKVLHVGI, the amyloid nucleation score result is “inactive”.
For DWNRLFRVD, the amyloid nucleation score result is “inactive”.
VLYSYRYSYSVGLCTEMHRF: the amyloid nucleation score entry was “inactive”.
VNNSRGSAYSEVRSILRRYA: the amyloid nucleation score entry was “inactive”.
The result for LGKKLDCGDSMRSVRPICRG reads “inactive”; that for TKYFRSNNPFHLVYTYIYLT, “inactive”; that for GAFPRGSS, “inactive”.
Regarding IINIRVIVSSLFPFLSSEFS, the amyloid nucleation score entry was “inactive”.
On to CPRGPWFFTTTAVTSALNIS, for which the amyloid nucleation score was -0.016 ± 0.86.
CYTIRLWARLNLCRGIKS: the amyloid nucleation score is -0.439 ± 1.1.
Regarding CRHPTGKACELCELACFN, the amyloid nucleation score result was “inactive”.
In the case of PLSLGFVIGHHVSIPGSSTD, the amyloid nucleation score entry is “inactive”.
On to CELGDSGVIDDKIICVCYYL, for which the amyloid nucleation score result was “inactive”.
The result for YCVSGMVMCCH reads “inactive”; that for ESFLFFMFIFASCTT, 0.536 ± 0.33.
On to RLFYCVSAVRIHVCGNSKLF, for which the amyloid nucleation score entry is “inactive”.
In the case of PVSYVLEEVEPRVRVSGPSG, the amyloid nucleation score result is “inactive”.
As for LSNDQSDTMEKCRRSVTLW, the amyloid nucleation score entry was “inactive”.
Consider NTSWLNSWATVITIWPYCAL, for which the amyloid nucleation score amounted to 0.724 ± 0.2.
As for DSTSLKIGRNAMSHHKSNPC, the amyloid nucleation score was determined as 1.09 ± 0.11.
On to IWWVSK, for which the amyloid nucleation score result is “inactive”.
FCYEHSLWLCLSYKVTVMRM registered an amyloid nucleation score of 1.08 ± 0.15.
With FLSPSGVD the entry was “inactive”; with YYYSMVTTLRGAISILRNPA, “inactive”.
Consider CFTNNSIHVYSLWIKTRHFF, for which the amyloid nucleation score was found to be 0.239 ± 0.58.
The result for GLVLISKC reads “inactive”.
Regarding FFSDTYSNTSPM, the amyloid nucleation score result is “inactive”.
Turning to SHSWQLSYSKSRYVIDAIAR, the amyloid nucleation score entry was “inactive”.
With LGDAFWFEIH the entry was “inactive”; with FSFTRNERIDSLCSNAHSFT, “inactive”.
Turning to YIIICLGMWCYSNVGSKTGT, the amyloid nucleation score result was “inactive”.
Turning to NTPGYSELIVFGST, the amyloid nucleation score result was “inactive”.
The result for RVSLLNKGVGLRNIRFHEFL reads “inactive”.
In the case of AGGSLWKAL, the amyloid nucleation score entry is “inactive”.

The values above are taken from the supplement of paper PMC12042874.
